These are literature values, as cited in article PMC5167704.

The data set deals with C4BP SCR6-8 (Homo sapiens) (UniProt P04003).
UniProt P04003, sequence (P04003 363-540): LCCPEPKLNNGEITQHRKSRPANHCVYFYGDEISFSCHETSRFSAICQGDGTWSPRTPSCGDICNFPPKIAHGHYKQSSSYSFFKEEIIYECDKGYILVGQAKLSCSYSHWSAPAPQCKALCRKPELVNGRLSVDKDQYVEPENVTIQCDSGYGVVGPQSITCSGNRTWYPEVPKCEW

Broadly, the Kd is the equilibrium constant for the complex coming apart. In the case of Ail (from UniProt Q56957), the Kd is 0.76 nM.
